This is an account of results in patent publication US20090081786A1, “Peptide sequences for modulation of protein kinase C” (priority 2006, published 2009).

The target in the assay is annexin V endogenous in CHO-K1 cells (Homo sapiens (Human)) (UniProt P08758). Nature of the assay: co-immunoprecipitation from CHO cells stimulated with 10 nM PMA, FIG. 2.

In the case of “δ-PKC endogenous in CHO-K1 cells (from UniProt P28867 1-674) (enzyme)”, the fold increase in the amount of complex after PMA stimulation (against before stimulation) came to 4 fold.
